The target in data set [1] is HIV-1 integrase (IN), monomer E (HIV-1) (UniProt P04585). Nature of the data set: SAXS titration.
In another data set the target is HIV-1 integrase (HIV-1). Nature of the data set: SAXS.

Where “and” joins values, the source holds several entries; their conditions need not be identical. Equal values may be shown once.

What is called Kd is the free concentration of one partner at which half of the binding sites on the other are occupied at equilibrium, for simple one-to-one binding. In general, stoichiometry N refers to a count of units in the complex or per binding partner.

Consider “AAAAAAAAAAAAAAAAAAAAA (double strand) [ds A21-T21]”, for which the Kd in data set [1] came out at 0.04 µM.
Take HIV-1 integrase (enzyme): the stoichiometry N with HIV-1 integrase (HIV-1) is 2 and 4.

The values above are taken from PMC1807944.
